Positions of bridges follow the written chain, without caps; N, C: chain ends. No end group written: not given here.
The binders below were run against T1, FLAG-tagged ACE-2 target (human, UniProt Q9BYF1 18-740) (assay: phage ELISA on FLAG-ACE-2).
T1 construct: range 1-740; obtained from Human Genome Sciences, Inc; also called FLAG-ACE-2; tagged human ACE-2; not shown: FLAG tag
Procedure: Phage enriched from the third round of selection were screened by ELISA for strong ACE-2 binders. Immulon 2 96-well plates (Dynatech) were coated with streptavidin for 1 hour at 37° C. and subsequently coated with anti-FLAG antibody for 1 hour at room temperature. Half of the plates were further coated with FLAG-ACE-2 as the target plates, and the other half of the plates were coated with FLAG peptide as background plates. The amount of each protein or peptide coated was 100 ng per well. The coated plates were then incubated for 1 hour at room temperature with 1:2 diluted overnight phage cultures that were made by inoculating phage from individual plaques into bacterial host cells. After being washed 7 times with PBST, the plates were incubated with HRP-conjugated anti-M13 antibody (Pharmacia) for 1 hour at room temperature, washed 5 times, developed with TMB peroxidase substrate solution (Kirkegaad & Perry Laboratories, Gaithersburg, Md.), and read at 630 nm on an ELISA plate reader.

T1 sequence (Q9BYF1 18-740 limits assumed): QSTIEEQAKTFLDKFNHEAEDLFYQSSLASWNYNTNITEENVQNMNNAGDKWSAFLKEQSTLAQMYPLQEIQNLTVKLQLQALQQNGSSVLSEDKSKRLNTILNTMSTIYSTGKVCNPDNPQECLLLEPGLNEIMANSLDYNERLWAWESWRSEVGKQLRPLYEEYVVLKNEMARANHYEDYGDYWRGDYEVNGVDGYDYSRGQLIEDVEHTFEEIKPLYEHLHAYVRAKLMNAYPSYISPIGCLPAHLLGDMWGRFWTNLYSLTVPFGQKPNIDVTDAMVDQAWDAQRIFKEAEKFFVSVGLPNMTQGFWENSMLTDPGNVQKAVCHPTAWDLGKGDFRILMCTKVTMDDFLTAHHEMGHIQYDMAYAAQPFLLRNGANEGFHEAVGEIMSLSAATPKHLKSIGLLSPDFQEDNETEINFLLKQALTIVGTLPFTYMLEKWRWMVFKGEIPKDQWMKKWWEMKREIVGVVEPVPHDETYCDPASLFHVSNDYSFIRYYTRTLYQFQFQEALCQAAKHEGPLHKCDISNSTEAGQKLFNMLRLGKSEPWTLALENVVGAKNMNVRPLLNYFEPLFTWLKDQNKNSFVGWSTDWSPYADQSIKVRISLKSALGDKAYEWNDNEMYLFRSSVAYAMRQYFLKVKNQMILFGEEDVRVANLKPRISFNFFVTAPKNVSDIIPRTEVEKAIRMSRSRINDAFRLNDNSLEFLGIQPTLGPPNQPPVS

binding result	Binder
binds	WEVCHWAPMMCKHG (not fully specified (N-terminus, C-terminus, bridges); cysteine pairing not given here) [ACE-2 binding polypeptide WEVCHWAPMMCKHG]
binds	EHNCTWWNPCWTT (not fully specified (bridges); cysteine pairing not given here) [ACE-2 binding polypeptide EHNCTWWNPCWTT]
binds	RYLCLPQRDKPWKFCNWF (not fully specified (N-terminus, C-terminus, bridges); cysteine pairing not given here) [ACE-2 binding polypeptide RYLCLPQRDKPWKFCNWF]
binds	RLHCKPQRQSPWMKCQHL (not fully specified (N-terminus, C-terminus, bridges); cysteine pairing not given here) [ACE-2 binding polypeptide RLHCKPQRQSPWMKCQHL]
binds	SDWCGTWNNPCFHQ (not fully specified (N-terminus, C-terminus, bridges); cysteine pairing not given here) [ACE-2 binding polypeptide SDWCGTWNNPCFHQ]
binds	WDHCNWAHPCSRK (not fully specified (bridges); cysteine pairing not given here) [ACE-2 binding polypeptide WDHCNWAHPCSRK]
binds	YSHCSPLRYYPWWKCTYP (not fully specified (N-terminus, C-terminus, bridges); cysteine pairing not given here) [ACE-2 binding polypeptide YSHCSPLRYYPWWKCTYP]
binds	LHACRPVRGDPWWACTLG (disulfide 4-15 (inferred); not fully specified (N-terminus, C-terminus)) [ACE-2 binding polypeptide LHACRPVRGDPWWACTLG]
binds	QKECKFGYPHCLPW (not fully specified (N-terminus, C-terminus, bridges); cysteine pairing not given here) [ACE-2 binding polypeptide QKECKFGYPHCLPW]
binds	LEMCEALFCVEF (disulfide 4-9 (inferred); not fully specified (N-terminus, C-terminus)) [ACE-2 binding polypeptide LEMCEALFCVEF]
binds	YEFCHYAPQECKHM (not fully specified (bridges); cysteine pairing not given here) [ACE-2 binding polypeptide YEFCHYAPQECKHM]
binds	MDHCTWYQPCVLK (not fully specified (bridges); cysteine pairing not given here) [ACE-2 binding polypeptide MDHCTWYQPCVLK]

These binders were tested against T2, recombinant human-ACE-2 (human, UniProt Q9BYF1 18-740, limits assumed) (assay: cell-based or functional assay).
T2 sequence (Q9BYF1 18-740 limits assumed): as above

IC50 [µM]	Binder
0.6	Ac-GSRIGCRDSRCNWWAPGEGGG-NH2 (disulfide 6-11 (inferred); also: oxidized peptide) [DX-524 Ac-GSRIGCRDSRCNWWAPGEGGG-NH2]
0.06	Ac-GDRLHCKPQRQSPWMKCQHLDPEGGG-NH2 (disulfide 6-17 (inferred); also: oxidized peptide, synthetic, TN12 library; also called B-H7) [DX-512 Ac-GDRLHCKPQRQSPWMKCQHLDPEGGG-NH2]
0.14	Ac-GDRYLCLPQRDKPWKFCNWFDPEGGG-NH2 (disulfide 6-17 (inferred); also: oxidized peptide) [DX-599 Ac-GDRYLCLPQRDKPWKFCNWFDPEGGG-NH2]
1	Ac-GSRGFCRDSSCSFPAPGEGGG-NH2 (disulfide 6-11 (inferred); also: oxidized peptide) [DX-525 Ac-GSRGFCRDSSCSFPAPGEGGG-NH2]
0.09	Ac-GDLHACRPVRGDPWWACTLGDPEGGG-NH2 (disulfide 6-17 (inferred); also: oxidized peptide, synthetic, TN12 library; also called ACEH2-D8) [DX-513 Ac-GDLHACRPVRGDPWWACTLGDPEGGG-NH2]
0.4	Ac-AGWEVCHWAPMMCKHGGTEGGG-NH2 (disulfide 6-13 (inferred); also: oxidized peptide) [DX-529 Ac-AGWEVCHWAPMMCKHGGTEGGG-NH2]
30	Ac-AGQKECKFGYPHCLPWGTEGGG-NH2 (disulfide 6-13 (inferred); also: oxidized peptide) [DX-530 Ac-AGQKECKFGYPHCLPWGTEGGG-NH2]
0.12	Ac-GDFSPCKALRHSPWWVCPSGDPEGGG-NH2 (disulfide 6-17 (inferred); also: oxidized peptide) [DX-602 Ac-GDFSPCKALRHSPWWVCPSGDPEGGG-NH2]
0.5	Ac-AGSDWCGTWNNPCFHQGTEGGG-NH2 (disulfide 6-13 (inferred); also: oxidized peptide) [DX-531 Ac-AGSDWCGTWNNPCFHQGTEGGG-NH2]
0.068	Ac-GDGFTCSPIRMFPWFRCDLGDPEGGG-NH2 (disulfide 6-17 (inferred); not fully specified; printed as Ac-GDGFTCSPIRMFPWFRCDLGDPEGGG-NH2) [DX-601 Ac-GDGFTCSPIRMFPWFRCDLGDPEGGG-NH2]

Each binder was assayed against T2, recombinant human-ACE-2 (assay: fluorometric ACE-2 activity assay, M-2195 substrate).
Procedure: Assay mixture was prepared first by pre-incubating (30 minutes, room temperature) the enzyme with the inhibitor (0.45 μg ([…]) ACE-2, 0-0.5 μM inhibitor rage, up to 90 […] volume with 100 mM TRIS pH 7.4, 0.1% Tween-20, 0.4% DMSO) in each well, in triplicate, by dispensing volumes using a repeat pipetter (Rainin) into a 96-well clear-bottom back plate (Costar, 07-200-590). […] Substrate stock (10 μL of 10× concentration) was added to each well to be tested in blocks of three vertically down the plate. The reaction was monitored on a Spectrafluor Plus (Tecan) at an excitation wavelength of 340 nm and an emission wavelength of 400 nm (+/−35 nm) every 30 seconds for a time period of 10 minutes.

Ki [nM]	Binder
150	Ac-GDRLHCKPQRQSPWMKCQHLDPEGGG-NH2 (disulfide 6-17 (inferred); also: oxidized peptide, synthetic, TN12 library; also called B-H7) [DX-512 Ac-GDRLHCKPQRQSPWMKCQHLDPEGGG-NH2]
150	Ac-GDLHACRPVRGDPWWACTLGDPEGGG-NH2 (disulfide 6-17 (inferred); also: oxidized peptide, synthetic, TN12 library; also called ACEH2-D8) [DX-513 Ac-GDLHACRPVRGDPWWACTLGDPEGGG-NH2]

Source: patent US20030138894A1 (Human Genome Sciences, published 2003)
